Measured values: patent US20230203155A1 (ALMAC DISCOVERY, published 2023)

T1: Peptide 4 (human)
T1 construct: linear ROR1 ECD peptide
T1 peptide: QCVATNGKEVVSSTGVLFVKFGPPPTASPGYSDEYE

T2: Peptide 3 (human)
T2 construct: linear ROR1 ECD peptide
T2 peptide: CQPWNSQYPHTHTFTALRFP

T3: Peptide 2 (human)
T3 construct: linear ROR1 ECD peptide; insoluble in PBS
T3 peptide: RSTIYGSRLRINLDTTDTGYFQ

T4: Peptide 1 (human)
T4 construct: linear ROR1 ECD peptide
T4 peptide: YMESLHMQGEIENQI

B1: P3A1 dimer, no tag (VNAR)
chain: TRVDQTPRTATKETGESLTINCVLTDTSYGLYSTSWFRKNPGTTDWERMSIGGRYVESVNKGAKSFSLRIKDLTVADSATYYCKAREARHPWLRQWYDGAGTVLTVNGGGGSGGGGSGGGGSGGGGSGGGGSTRVDQTPRTATKETGESLTINCVLTDTSYGLYSTSWFRKNPGTTDWERMSIGGRYVESVNKGAKSFSLRIKDLTVADSATYYCKAREARHPWLRQWYDGAGTVLTVN
B2: P3A1 his myc (VNAR)
VNAR: TRVDQTPRTATKETGESLTINCVLTDTSYGLYSTSWFRKNPGTTDWERMSIGGRYVESVNKGAKSFSLRIKDLTVADSATYYCKAREARHPWLRQWYDGAGTVLTVNQ
notes: VNAR; also called P3A1 6xHis myc
B3: P3A1 his (VNAR)
VNAR: B2 VNAR
notes: VNAR; also called P3A1 6xHis
B4: CPF7 his myc (VNAR)
VNAR: TRVDQTPRTATKETGESLTINCVVTGAKYGLFATYWYRKNPGSSNQERISISGRYVESVNKRTMSFSLRIKDLTVADSATYYCKAVFMPQHWHPAAHWYDGAGTVLTVNQ
notes: VNAR
B5: CPF7-[G4S]5-CPF7 his myc (VNAR)
chain: TRVDQTPRTATKETGESLTINCVVTGAKYGLFATYWYRKNPGSSNQERISISGRYVESVNKRTMSFSLRIKDLTVADSATYYCKAVFMPQHWHPAAHWYDGAGTVLTVNGGGGSGGGGSGGGGSGGGGSGGGGSTRVDQTPRTATKETGESLTINCVVTGAKYGLFATYWYRKNPGSSNQERISISGRYVESVNKRTMSFSLRIKDLTVADSATYYCKAVFMPQHWHPAAHWYDGAGTVLTVNQASGAHHHHHHGAEFEQKLISEEDL
notes: VNAR homodimer; also called CPF7-CPF7 dimer
B6: P3A1 Wobbe-G4S-BA11-Wobbe-G4S-P3A1 CysHisMyc (VNAR)
chain: TRVDQTPRTATKETGESLTINCVLTDTSYGLYSTSWFRKNPGTTDWERMSIGGRYVESVNKGAKSFSLRIKDLTVADSATYYCKAREARHPWLRQWYDGAGTVLTVNPGVQPSPGGGGSTRVDQSPSSLSASVGDRVTITCVLTDTSYPLYSTYWYRKNPGSSNKEQISISGRYSESVNKGTKSFTLTISSLQPEDSATYYCRAMSTNIWTGDGAGTKVEIKPGVQPSPGGGGSTRVDQTPRTATKETGESLTINCVLTDTSYGLYSTSWFRKNPGTTDWERMSIGGRYVESVNKGAKSFSLRIKDLTVADSATYYCKAREARHPWLRQWYDGAGTVLTVNQACKAHHHHHHGAEFEQKLISEEDL
notes: VNAR fusion; also called P3A1-BA11-P3A1
B7: BA11 Wobbe-G4S-P3A1-Wobbe-G4S-P3A1-CysHisMyc (VNAR)
chain: TRVDQSPSSLSASVGDRVTITCVLTDTSYPLYSTYWYRKNPGSSNKEQISISGRYSESVNKGTKSFTLTISSLQPEDSATYYCRAMSTNIWTGDGAGTKVEIKPGVQPSPGGGGSTRVDQTPRTATKETGESLTINCVLTDTSYGLYSTSWFRKNPGTTDWERMSIGGRYVESVNKGAKSFSLRIKDLTVADSATYYCKAREARHPWLRQWYDGAGTVLTVNPGVQPSPGGGGSTRVDQTPRTATKETGESLTINCVLTDTSYGLYSTSWFRKNPGTTDWERMSIGGRYVESVNKGAKSFSLRIKDLTVADSATYYCKAREARHPWLRQWYDGAGTVLTVNQACKAHHHHHHGAEFEQKLISEEDL
notes: VNAR fusion; also called BA11-P3A1-P3A1
B8: E7 his myc (VNAR)
VNAR: TRVDQTPRTATKETGESLTINCVVTGAKYGLAATYWYRKNPGSSNQERISISGRYVESVNKRTMSFSLRIKDLTVADSATYYCKAYPWAMWGQWYDGAGTVLTVNQ
notes: VNAR
B9: Peptide 5 (peptide)
peptide: RSTIYGSRLRIRNLDTTDTGYFQ
notes: linear ROR1 ECD peptide

Tests used:
[1] = biological target: T5, human ROR1-hFc fusion protein (extracellular domain) (human); assay: SPR, ROR1-hFc on chip
T5 construct: Whole entry 'human ROR1-Fc (CHO)'; also called hROR1; huROR1-Fc
Method: (§1) Binding kinetics were determined using a Pioneer Surface Plasmon Resonance (SPR) instrument (SensiQ/Pall ForteBio). […] VNARs and VNAR-Fc molecules were tested at various concentrations and the Ka (M⁻¹s⁻¹), Kd (s⁻¹) and KD (nM) values were determined using QDat software (SensiQ/Pall ForteBio).

[2] = biological target: T6, human ROR2-hFc fusion protein (extracellular domain) (human); assay: SPR, ROR2-hFc on chip
T6 construct: Whole entry 'human ROR2-Fc (CHO)'; also called hROR2

[3] = biological target: T7, recombinant human ROR1 (hROR1), construct not stated (human, UniProt Q01973 30-403, limits assumed); assay: SPR, hROR1 on chip
Fz-Kr-Fc = biological target: T8, Fz-Kr-Fc; assay: analytical SEC and SDS-PAGE of fractions
T8 construct: also called human ROR1 (FZKR domains)-Fc (CHO)
Method: 1:1 VNAR:ROR1 domain or ROR1 domain pairs was incubated on ice for 30 mins then run on a the Superdex 200 increase 10/300 column (GE Healthcare) in PBS and fractions analysed by SDS-PAGE.
Complex formation was then assessed using analytical SEC.

[4] = biological target: T7, recombinant human ROR1 (hROR1), …; assay: SPR, hROR1 on chip with competitor B1 pre-captured
Method: Competition of binding studies were completed using SPR. […] FC2 was used as the reference channel. […] Binding kinetics were determined using QDat software.

[5] = biological target: T6, human ROR2-hFc fusion protein …; assay: direct ELISA, panel Binding to human ROR2-Fc
Method: (§2) In brief, ELISA method as follows. Wells coated with 100 ng antigen and incubated, covered, at room temperature for 2 hr. Plates washed 3×400 ul per well with PBST (PBS+0.05% Tween 20 (v/v)), then blocked with 4% skimmed milk powder (w/v) in PBST for 1 hour at 37° C. Plates washed as before plus additional wash in PBS alone. Binding proteins were diluted in 4% milk PBST and incubated overnight at 4° C. Plates washed 3× with PBST, 3×PBS and binding detected using appropriate secondary detection antibody in 4% milk PBST, room temperature 1 hour. […] Rabbit anti-Mouse IgG H&L, HRP (Abcam #ab97046) [0360] Mouse anti-polyHis, HRP (Sigma #A7058)

[6] = biological target: T5, human ROR1-hFc fusion protein …; assay: SPR, ROR1-hFc on chip; remark: listed apart in the source
Method: as §1

[7] = biological target: T9, mouse ROR1-Fc fusion protein (mouse); assay: SPR, mouse ROR1 on chip
T9 construct: Whole entry 'mouse ROR1-Fc (CHO)'; also called mROR1
Method: as §1

[8] = biological target: T10, human ROR1 (FZ domain)-Fc (human); assay: direct ELISA on coated Frizzled domain, panel Binding of P3A1 to human ROR1 domains
T10 construct: also called Fz-Fc; Frizzle domain

Peptide 5 = biological target: B9; assay: direct ELISA on coated peptide 5 [continued]
Method: as §2

Peptide 4 = biological target: T1, Peptide 4; assay: direct ELISA on coated peptide (in PBS), panel P3A1 direct binding ELISA
Peptide 3 = biological target: T2, Peptide 3; assay: as above
Peptide 2 = biological target: T3, Peptide 2; assay: as above
Peptide 1 = biological target: T4, Peptide 1; assay: as above
[9] = biological target: T11, rat ROR1-Fc fusion protein (rat); assay: SPR, rat ROR1 on chip
T11 construct: Whole entry 'rat ROR1-Fc (CHO)'; also called rROR1
Method: as §1

[10] = biological target: T6, human ROR2-hFc fusion protein …; assay: SPR, ROR2-hFc on chip; remark: listed apart in the source
Method: as §1
(§3) Binding kinetics were determined using a SPR (as previously described) or using Biolayer interferometry (K2 Octet instrument/Pall ForteBio). […] VNARs and VNAR-Fc molecules were tested at various concentrations and the Ka (M−1s−1), Kd (s−1) and KD (nM) values were determined using the Octet data analysis HT software (Pall ForteBio).

[11] = biological target: T12, human ROR1 on the surface of ROR1hi human cancer cell lines (human, UniProt Q01973 30-937); assay: flow cytometry, A549 (ROR1hi) cells
T12 construct: whole, on cells; Cell line is named under assay; also called cell surface ROR1
Method: (§4) Adherent human cancer cells were detached from tissue culture flasks by incubating with 0.1% EDTA/PBS solution at 37° C. for −10 minutes or until cells detached easily. Cells were re-suspended in 5 ml ice-cold PBS/2% FCS in 15 ml tubes and centrifuged at 1500 rpm for 5 mins at 4° C. Supernatant was removed and the cell pellet re-suspended in 1-2 ml of PBS/2% FCS. A cell count was performed using a Z1 Coulter Particle Counter (Beckman Coulter) and 5×10\hat{ }5 cells were aliquoted per test sample. Cells were incubated with 100 μl of either VNAR (His₆Myc tagged), VNAR-Fc molecules or ROR1 mAb and IgG controls for 1 hour on ice. Excess VNAR, VNAR-Fc or mAb was removed by adding 5 ml of ice-cold PBS/2% FCS, followed by centrifugation at 1500 rpm for 5 mins at 4° C. The supernatant was removed and a second wash performed by re-suspending the cell pellet in 1 ml of ice-cold PBS/2% FCS and adding a further 4 ml of ice-cold PBS/2% FCS. Samples were again centrifuged at 1500 rpm for 5 min at 4° C. Supernatant was removed and excess liquid removed by blotting the tubes on tissue paper. […] Cells were incubated with chosen secondary antibody for 30 min on ice. Cells were washed to remove excess antibody as described earlier. […]

[12] = biological target: T5, human ROR1-hFc fusion protein …; assay: BLI, ROR1-hFc on sensor
Method: as §3

[13] = biological target: T5, human ROR1-hFc fusion protein …; assay: BLI, ROR1-hFc on sensor, 200 nM HSA present
Method: as §3

[14] = biological target: T9, mouse ROR1-Fc fusion protein; assay: ELISA
human serum albumin = biological target: T13, human serum albumin (human, UniProt P02768 25-609); assay: BLI, HSA on sensor
T13 construct: also called HSA
Method: as §3

[15] = biological target: T12, human ROR1 on the surface of ROR1hi …; assay: flow cytometry on A549 (ROR1hi) cells, PE-anti Myc tag Ab
Method: FIG. 9: Cell surface binding of VNAR (His₆Myc tag) molecules to A549 (ROR1^hi) lung cancer cells by flow cytometry.
as §4

D3-[G4S]5-D3 his myc = biological target: T14, D3-[G4S]5-D3 his myc; assay: competition ELISA: VNAR pre-incubated with peptide 5, residual binding to coated huROR1-Fc [continued]
T14 construct: VNAR homodimer by genetic fusion; also called D3-D3; D3 dimer
Method: as §2
(§5) Competition assays were conducted as described in the methods with all four peptides reconstituted in PBS.

P3A1 his myc = biological target: B2; assay: as above
Method: as §2, §5

D3 his myc = biological target: T15, D3 his myc; assay: as above
T15 construct: VNAR; made in E. coli and in HEK293 (expression system under assay); also called D3 WT
Method: as §2, §5

[16] = biological target: T16, B1 VNAR with C-terminal His6Myc tag; assay: as above
T16 construct: VNAR, E. coli; also called B1 his myc; B1HisMyc monomer
Method: as §2, §5

T5 sequence (chain, as listed by the source limits assumed): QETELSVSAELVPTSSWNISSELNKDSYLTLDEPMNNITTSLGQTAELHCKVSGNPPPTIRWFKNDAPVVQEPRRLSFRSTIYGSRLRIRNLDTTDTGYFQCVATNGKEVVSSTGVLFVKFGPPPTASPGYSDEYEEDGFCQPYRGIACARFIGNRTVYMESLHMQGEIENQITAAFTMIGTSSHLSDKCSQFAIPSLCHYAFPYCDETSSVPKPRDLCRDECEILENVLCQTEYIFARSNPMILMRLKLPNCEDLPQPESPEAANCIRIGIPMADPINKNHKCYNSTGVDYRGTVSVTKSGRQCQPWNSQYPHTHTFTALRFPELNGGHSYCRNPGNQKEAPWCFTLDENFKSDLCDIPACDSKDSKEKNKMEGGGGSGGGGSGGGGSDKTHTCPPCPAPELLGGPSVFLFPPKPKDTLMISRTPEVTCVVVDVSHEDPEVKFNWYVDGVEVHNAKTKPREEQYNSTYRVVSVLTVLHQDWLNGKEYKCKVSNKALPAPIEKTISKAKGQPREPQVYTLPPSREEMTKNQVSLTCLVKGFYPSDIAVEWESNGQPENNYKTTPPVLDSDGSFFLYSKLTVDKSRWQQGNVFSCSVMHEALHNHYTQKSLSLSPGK
T9 sequence (chain, as listed by the source limits assumed): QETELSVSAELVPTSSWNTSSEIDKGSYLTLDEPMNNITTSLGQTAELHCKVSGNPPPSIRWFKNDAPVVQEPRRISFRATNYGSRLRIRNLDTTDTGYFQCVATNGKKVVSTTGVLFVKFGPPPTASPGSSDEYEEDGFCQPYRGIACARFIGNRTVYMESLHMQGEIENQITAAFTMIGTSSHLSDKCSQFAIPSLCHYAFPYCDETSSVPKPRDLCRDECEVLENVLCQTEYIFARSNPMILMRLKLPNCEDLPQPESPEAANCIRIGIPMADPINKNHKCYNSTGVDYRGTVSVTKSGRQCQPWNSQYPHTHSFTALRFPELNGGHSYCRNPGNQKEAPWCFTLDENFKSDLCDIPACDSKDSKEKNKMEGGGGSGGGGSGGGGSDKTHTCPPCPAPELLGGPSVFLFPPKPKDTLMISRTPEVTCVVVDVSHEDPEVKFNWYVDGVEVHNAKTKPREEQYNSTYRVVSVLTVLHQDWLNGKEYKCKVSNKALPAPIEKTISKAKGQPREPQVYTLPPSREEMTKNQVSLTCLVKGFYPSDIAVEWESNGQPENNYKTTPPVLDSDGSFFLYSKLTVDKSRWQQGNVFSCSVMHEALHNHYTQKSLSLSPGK
T6 sequence (chain, as listed by the source limits assumed): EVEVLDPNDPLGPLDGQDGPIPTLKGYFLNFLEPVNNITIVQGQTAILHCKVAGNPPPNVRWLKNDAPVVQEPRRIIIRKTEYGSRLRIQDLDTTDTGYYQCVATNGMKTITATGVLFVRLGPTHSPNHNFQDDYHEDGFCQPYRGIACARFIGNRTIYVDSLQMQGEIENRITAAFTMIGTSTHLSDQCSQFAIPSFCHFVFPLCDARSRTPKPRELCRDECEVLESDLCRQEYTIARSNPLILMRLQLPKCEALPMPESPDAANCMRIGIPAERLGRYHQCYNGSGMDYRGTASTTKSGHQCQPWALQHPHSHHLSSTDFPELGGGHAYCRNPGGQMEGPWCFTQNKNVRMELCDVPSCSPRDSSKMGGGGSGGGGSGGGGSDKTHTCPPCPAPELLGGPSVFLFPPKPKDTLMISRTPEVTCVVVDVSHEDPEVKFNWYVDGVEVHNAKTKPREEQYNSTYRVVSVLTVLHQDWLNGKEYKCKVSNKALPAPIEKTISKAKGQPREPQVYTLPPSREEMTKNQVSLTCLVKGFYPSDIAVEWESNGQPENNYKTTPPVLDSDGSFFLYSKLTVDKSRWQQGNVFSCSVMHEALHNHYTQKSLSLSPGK
T11 sequence (chain, as listed by the source limits assumed): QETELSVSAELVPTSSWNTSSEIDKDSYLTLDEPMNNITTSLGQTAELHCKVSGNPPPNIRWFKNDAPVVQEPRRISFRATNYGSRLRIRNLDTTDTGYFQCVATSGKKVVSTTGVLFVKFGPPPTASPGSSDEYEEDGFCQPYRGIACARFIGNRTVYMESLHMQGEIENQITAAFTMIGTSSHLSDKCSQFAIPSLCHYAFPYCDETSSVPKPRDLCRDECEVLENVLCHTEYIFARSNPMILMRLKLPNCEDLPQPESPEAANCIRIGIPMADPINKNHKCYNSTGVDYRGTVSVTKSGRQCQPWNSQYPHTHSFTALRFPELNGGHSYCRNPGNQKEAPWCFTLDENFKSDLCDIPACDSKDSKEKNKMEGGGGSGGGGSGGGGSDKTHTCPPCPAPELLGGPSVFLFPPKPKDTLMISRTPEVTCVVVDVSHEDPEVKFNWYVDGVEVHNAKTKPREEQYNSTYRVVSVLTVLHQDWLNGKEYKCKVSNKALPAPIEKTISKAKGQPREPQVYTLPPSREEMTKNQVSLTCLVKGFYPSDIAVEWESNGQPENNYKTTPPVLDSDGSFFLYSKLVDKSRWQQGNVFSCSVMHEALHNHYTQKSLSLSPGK
T10 sequence (chain, as listed by the source limits assumed): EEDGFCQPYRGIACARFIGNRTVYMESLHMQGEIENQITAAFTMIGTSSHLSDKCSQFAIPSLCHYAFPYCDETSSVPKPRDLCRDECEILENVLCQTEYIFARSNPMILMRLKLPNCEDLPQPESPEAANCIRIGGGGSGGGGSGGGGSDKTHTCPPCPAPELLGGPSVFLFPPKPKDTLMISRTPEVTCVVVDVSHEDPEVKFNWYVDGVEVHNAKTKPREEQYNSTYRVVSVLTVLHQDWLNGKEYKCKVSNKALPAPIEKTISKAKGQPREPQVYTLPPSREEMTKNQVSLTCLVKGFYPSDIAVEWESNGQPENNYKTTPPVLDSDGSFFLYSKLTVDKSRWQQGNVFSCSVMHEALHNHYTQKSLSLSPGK
T8 sequence (Fc fusion chain, as listed by the source): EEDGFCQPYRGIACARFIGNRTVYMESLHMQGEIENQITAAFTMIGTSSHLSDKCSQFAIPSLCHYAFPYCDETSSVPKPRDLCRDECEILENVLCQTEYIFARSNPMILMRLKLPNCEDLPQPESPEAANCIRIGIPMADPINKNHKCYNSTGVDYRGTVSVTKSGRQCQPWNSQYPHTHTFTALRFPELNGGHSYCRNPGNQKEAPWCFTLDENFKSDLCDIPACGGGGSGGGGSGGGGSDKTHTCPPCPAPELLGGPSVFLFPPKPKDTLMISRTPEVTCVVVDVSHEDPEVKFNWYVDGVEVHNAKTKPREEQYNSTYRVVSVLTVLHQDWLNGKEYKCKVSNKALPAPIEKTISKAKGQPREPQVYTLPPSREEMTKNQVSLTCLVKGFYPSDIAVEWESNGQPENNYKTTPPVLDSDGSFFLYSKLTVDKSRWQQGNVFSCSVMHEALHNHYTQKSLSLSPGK

Binder: B1
Kd [1]: 0.36 nM | koff [1]: 0.000598 s⁻¹ | kon [1]: 1.67e+06 M⁻¹ s⁻¹ | binding result [2]: no binding

Binder: B2
Kd [3]: 15.9 nM | koff [3]: 0.0411 s⁻¹ | kon [3]: 2.58e+06 M⁻¹ s⁻¹ | binding result (Fz-Kr-Fc): binds | Kd [4]: 16.4 nM | koff [4]: 0.032 s⁻¹ | kon [4]: 1.94e+06 M⁻¹ s⁻¹ | Kd [1]: 25.6 nM | koff [1]: 0.025 s⁻¹ | kon [1]: 980000 M⁻¹ s⁻¹ | binding result [5]: no binding (tested: 10 ug/ml) | Kd [6]: 19.1 nM | koff [6]: 0.0442 s⁻¹ | kon [6]: 2.47e+06 M⁻¹ s⁻¹ | Kd [7]: 14.3 nM | koff [7]: 0.0408 s⁻¹ | kon [7]: 2.95e+06 M⁻¹ s⁻¹ | binding result [8]: binds | binding result (Peptide 5): no binding | binding result (Peptide 4): no binding (tested: 1000 ng/ml) | binding result (Peptide 3): no binding (tested: 1000 ng/ml) | binding result (Peptide 2): no binding (tested: 1000 ng/ml) | binding result (Peptide 1): no binding (tested: 1000 ng/ml) | Kd [9]: 17.7 nM | koff [9]: 0.045 s⁻¹ | kon [9]: 2.86e+06 M⁻¹ s⁻¹

Binder: B3
Kd [1]: 7.8 nM | koff [1]: 0.0206 s⁻¹ | kon [1]: 2.92e+06 M⁻¹ s⁻¹ | binding result [2]: no binding

Binder: B4
binding result [10]: no binding | Kd [6]: 13.6 nM | koff [6]: 0.0296 s⁻¹ | kon [6]: 2.33e+06 M⁻¹ s⁻¹ | Kd [7]: 19.1 nM | koff [7]: 0.032 s⁻¹ | kon [7]: 2.26e+06 M⁻¹ s⁻¹ | Kd [9]: 68.6 nM | koff [9]: 0.0366 s⁻¹ | kon [9]: 772000 M⁻¹ s⁻¹

Binder: B5
binding result [11]: binds

Binder: B6
Kd [12]: 2.54 nM | koff [12]: 0.00044 s⁻¹ | kon [12]: 173000 M⁻¹ s⁻¹ | Kd [13]: 1.6 nM | binding result [14]: binds | Kd (human serum albumin): 5.58 nM | koff (human serum albumin): 0.00069 s⁻¹ | kon (human serum albumin): 124000 M⁻¹ s⁻¹

Binder: B7
Kd [12]: 3.47 nM | koff [12]: 0.000447 s⁻¹ | kon [12]: 129000 M⁻¹ s⁻¹ | Kd [13]: 2.53 nM | binding result [14]: binds | Kd (human serum albumin): 5.08 nM | koff (human serum albumin): 0.000566 s⁻¹ | kon (human serum albumin): 111000 M⁻¹ s⁻¹

Binder: B8
binding result [15]: binds | binding result [10]: no binding | Kd [6]: 11.1 nM | koff [6]: 0.0118 s⁻¹ | kon [6]: 1.11e+06 M⁻¹ s⁻¹ | Kd [7]: 1.4 nM | koff [7]: 0.002 s⁻¹ | kon [7]: 1.41e+06 M⁻¹ s⁻¹

Binder: B9
binding result (D3-[G4S]5-D3 his myc): no binding (tested: 1000 nM) | binding result (P3A1 his myc): no binding (tested: 1000 nM) | binding result (D3 his myc): no binding (tested: 1000 nM) | binding result [16]: no binding (tested: 1000 nM)
